{"source": "the DeepSol protein solubility set", "data": [{"test": "soluble on expression in E. coli; label from the status in PepcDB or PDB records", "values": [{"sequence": "MNHLLSMEHLSTDQIYKLIQKASQFKSGERQLPNFEGKYVANLFFENSTRTKCSFEMAELKLGLKTISFETSTSSVSKGESLYDTCKTLESIGCDLLVIRHPFNNYYEKLANINIPIANAGDGSGQHPTQSLLDLMTIYEEYGYFEGLNVLICGDIKNSRVARSNYHSLKALGANVMFNSPNAWIDDSLEAPYVNIDDVIETVDIVMLLRIQHERHGLAEETRFAADDYHQKHGLNEVRYNKLQEHAIVMHPAPVNRGVEIQSDLVEASKSRIFKQMENGVYLRMAVIDELLK", "soluble on expression in E. coli": "not soluble"}, {"sequence": "MKLNAIHHVAIIVSDYHLSKDFYVNKLGFEIIRENYRPDKHDYKLDLSCGRIELEIFGKVTSDPNYQAPPKRVSEPEFKSEACGLRHLAFRVTNIESYVDDLKSLGIPVEPIRHDDYTGEKMTFFFDPDGLPLELHE", "soluble on expression in E. coli": "not soluble"}, {"sequence": "MEDKRLIREKILRNLNSIDKVEHRERSIKLAEKLFLLPEWENAKVVGITLARHPEIETEAIILQAKKEGKTILIPKTYYPSRKMEFKKMDSIHPLIKSKFGILEPNELAETVDKKVIDLLIVPGVAFNKDHYRIGFGGGFYDRFLTDFQGHTVSLYLYEQQIEFTPETHDEPVSILIGGLEHHHHHH", "soluble on expression in E. coli": "not soluble"}, {"sequence": "MARQTKPLSVKEIESAKPKEADYVLYDGDGLELLIKSSGSKIWQFRYIRPVTKTRAKKSIGPYPSVTLADARNYRAESRSLLAKQIDPQEHQQEQLRSSLEAKTNTFQLVAERWWNVKKASVTEDYAEDIWRSLERDVFPAIGDVSVTDIKAHTLVQAVQPVQARGALETVRRLCQRINEVMIYAQNTGLIDAVPSVNIGKAFEKPQKKNMPSIRPDQLSQLMQTMRTASISLSTRCLFMWQLLTITRPAEAAEARWEEVDIEAQEWKIPAARMKMNRDHTVPLSDEAIAVLEMMKPLSGNREFIFPSRIKPNQPMNSQTVNASLKRAGFGGVLVSHGLRSIASTALNEQGFPPDAIEAALAHVDKNEVRRAYNRSDYLEQRRPMMQWWANFVMAADRGSMIEGGIKGMKLVG", "soluble on expression in E. coli": "not soluble"}, {"sequence": "MGSDKIHHHHHHMSNSLKASTAGLAIVDKSRQRLGWTKTSTARWWQDAHTSRATLRRFWQGDRIQREIFIAICQAVGIGNWEAIAELSNADLESTVVIPTPYLDCNEAPDLESFYGRNQELAQLEEWLTSQNCKLVTINGIAGIGKTALALALVDRIQLKFDCLIWKSLQTSPSLISLLNSLLNSFEQGVVVQNIQQGTAQLIQQLQKHHCLLILDGLEAIFSQPEDLSYGQFIQQLSRERHQSCILISSREQPNNIETNTKIYHCLNLKGLPKTEAVELLQSRGFTGKELGLSVLIQLYRGNPLVLKLVTPLIQSVFGGNVAAFLSQHTLIVGDRLRVILKQQFEQLSGLEQDILYWLAIWQEPVSFSRLQTHLLISVDPAMVLEGIVALERRSLLEKWVSDYELSFTLQPLVMKVVTDELIEHTVQEIDRVVQSHDIRHFQILRTHWLLRPGTDDIAGDRILTQLWKKLWHLYGATLPQIFNQILLLLKSQSPLAMGYIGSNVAILSGIDLL", "soluble on expression in E. coli": "not soluble"}, {"sequence": "MVADLMLCTNFFIFTGGPGSGKTAVLNELNTWGYLTVSEVARSIIQKQQADGGDAIHTGNRKAFRDLMLEQSIADYCKMQSEEKIVFFDRGIPDLYGYSKAFCGEASKEVNEAVGRFRYNKTVFIFPPWPEIYENDDERQQDYQEALQTYYAVKEGYFDCGYVLLEVPKCPIKDRANFIFQMISKNGLEHHHHHH", "soluble on expression in E. coli": "soluble"}, {"sequence": "IGEFSYSLNGNLSYAHNRILSRTQADNTLPWQSVLGSSVGELWGLKALGLYQSEEEIANSPQVSWNTPRVGDIKYADINGDGKIDSNDRIKISRGIRPEMMFALMADANYKGFDLSVQFQGAALCDKMLQYSWQDLNGATDMTPMTRPWYANWDNAPLYLVENSWRPDHTNAEYPRLTVSSVSHSNNAQQSDFWKRNGAYLRLKNVTLGYTLPKAWTNKMGLSNIRVYANGTNLLTFTDFKYIDPESTNVATGYYPQQRTFSFGIDVRF", "soluble on expression in E. coli": "not soluble"}, {"sequence": "MSLESPISEKKPPVIVQEVEQKPEVVEKENILIEQEKEVIKPLDVPLILQKPELMRGCEVTSLAMVLQFSGVKVDKMELASKIHYVPFQSNGLKGNMHKGFIGDMATFDKPGLGVFVEPILELAKLYVPDEKVMNLSYKEPEHIYEAIDRGLPVWVLTNARFKRLPDNQFYTWRTDTGEMKVTYHQHSVVVTDYDDQYVYINDPLKTDKHRAINRNNFEQSWIQMGRQAMTISIEGHHHHHH", "soluble on expression in E. coli": "not soluble"}, {"sequence": "ANKLDSKKLTRSNGTTLEYSQITDADNATKAVETLKNSIKLEGSLVVGKTTVEIKEGTVTLKREIEKDGKVKVFLNDTAGSNKKTGKWEDSTSTLTISADSKKTKDLVFLTDGTITVQQYNTAGTSLEGSASEIKNLSELKNALK", "soluble on expression in E. coli": "soluble"}, {"sequence": "MGSDKIHHHHHHMLYQGVSLILAPLLVFQGLNVRRTTPRLPEPEGERVGQTGANPALSLLILGDSAAAGVGVAFQQHALLGQVIEQLSPQLEFSYGLFAKTGSTTSTTLQALQEQIDIAHPILGQTHFDVIVTSLGVNDITSSISCEKWLLQQKALFELITKRYTPKLILVTALPPLGLFPALPHPLRWSLGQRANQFNRQLQQLLIKLNQQVDQPTDFRLIKLPLENPQPDITMLEFMRQVMASDGFHPGAPIYSAWANLVVEQIVGGIKSAAIA", "soluble on expression in E. coli": "not soluble"}, {"sequence": "MGSDKIHHHHHHMTDRSAVPVDSPAGSTRTVILEKALELFAETGFNGVSMRRIAQEVGINPATLYHHFVHKEDLYEQVLRFAYAEQAAHFSALVSIEGTPQSQLGEFIREFAFYIAKDQHFFRLVKREQLEGNSERLKMLVDLLFGKQYEAMVRSVGRVTQAFDTHMLVTSLLGLVLHHYETRHMRQFFVEYMPSQDDPEVVADHCCRLFFFGIQGAGAAQEVPYRSEQSLLSADGEHSRDGAG", "soluble on expression in E. coli": "not soluble"}, {"sequence": "MSAMKKLVVLGGGYGGMRILQRLLPNDLPSDWEITLVDRLPYHCLKTEYYALAAGTASDHHLRVSFPEDPRLSTRYGSVSSIDLASKTVLFEEGEPLTYDTLIIGLGCEDKYHGVPGAKEHTYSIQSMEATRRTYEALNNVRPEGVVTIVGAGLSGVELASELRESRPDLTIKLLDRGDIILSMFPRRLSNYVQNWFIDHGVDIINKSNVTKVEEGAVYNHDERIESDAIIWTAGLEHHHHHH", "soluble on expression in E. coli": "soluble"}, {"sequence": "MGSDKIHHHHHHMNYTKMRGVEEKLVESIVRRTIDTAEARLRKYVFTPTGEKRPERKPLAKLKEEIESFLRTRENKLLVLYGLRGVGKTTMLAQIYFKLLPQIPRERLVYVSLDKLRPLGISLNYFVQAYERLLGERIEEFSQPTFLFIDEAHYDENFGITVKDLYDSASNLMIVVTGSSSLPLKLDPDLMRRAKKLRVPPLTFTEYLLLKRGLQIPEELSAALKHAFLNCDFSGVEEKLDGVLLKFTEKDVEDYLIQGSLPIYLTSKNPLEDAYEILRKIVEVDLVLEGLSETTREKALGLLLLLASGESLAYDELSSTLGLAKGTVEKLIEKLEDLEVIFPVRAYGSLGKVARKTPKYKFLAPMLRSAVLYEFGLFERDSKTLGMLLEDAVALYLHLLAKEKKLGLHYDAQKGGADFILKGQSRGIVIEVGWGKKGLRQVIKTMKKTGLNCGVVIYNGPLKKKGEVWFVPRELFLLML", "soluble on expression in E. coli": "not soluble"}, {"sequence": "MADTKAKLTLNGDTAVELDVLKGTLGQDVIDIRTLGSKGVFTFDPGFTSTASCESKITFIDGDEGILLHRGFPIDQLATDSNYLEVCYILLNGEKPTQEQYDEFKTTVTLHTMIHEQITRLFHAFRRDSHPMAVMCGITGALAAFYHDSLDVNNPRHREIAAFRLLSKMPTMAAMCYKYSIGQPFVYPRNDLSYAGNFLNMMFSTPCEPYEVNPILERAMDRILILHADHEQNASTSTVRTAGSSGANPFACIAAGIASLWGPAHGGANEAALKMLEEISSVKHIPEFFRRAKDKNDSFRLMGFGHRVYKNYDPRATVMRETCHEVLKELGTKDDLLEVAMELENIALNDPYFIEKKLYPNVDFYSGIILKAMGIPSSMFTVIFAMARTVGWIAHWSEMHSDGMKIARPRQLYTGYEKRDFKSDIKR", "soluble on expression in E. coli": "soluble"}, {"sequence": "MSLAETLEKNAIDKSEYPQTAELENRCVNILADLWNAPKDMSYLGTSTVGSSEACMLGGLAMKFRWRNNAEKRGLDIQAKRPNLIISSGYQVCWEKFCVYWDVDMRVVPMDKNHLSLDVDKVFDLVDEYTIGVVGILGITYTGKFDDIQLLDEKVEAYNETNEHQLVIHIDGASGAMFTPFVNPELPWDFRLKNVVSINTSGHKYGLVYPGVGWILWKDKEYLPKELIFEVSYLGGSMPTMAINFSRSASQIIGQYYNFLRYGFEGYREIHEKTKKTAIYLAKTVEKSGYFEIINDGANLPIVCYKMKEGLDVEWTLYDLADQLLMKGWQVPAYPLPADLSDTIIQRFVCRADLGYNVAEEFAADFADAIHNLEHARVLYHDKERNDSYGFTHEGHHHHHH", "soluble on expression in E. coli": "soluble"}, {"sequence": "MSLGQFSISEVGHFYIAANTSLKHIHVTCAIIERDGLVLAAQRSAVMSLPLKWEFPGGKIDPGESPEECLRRELVEEMAVHVRVGQSLPVSTHQYPTFSVTLYPFLCTIESGEIVLHEHVAVTWLPPDELHTLDWAEADLPVIKSYQQGCRMRDHEGHHHHHH", "soluble on expression in E. coli": "not soluble"}, {"sequence": "MRKISEMPKFERPREKLLERGVGYLSDLELLAVLIGNGTKDCSVMNVAGKVLKLLDKGCDRVSARVLQEIEGVGPAKSAVIAAALEFARRRIRPEGIKITSACDILPLISYLANRKQEHFVCVSLNGASEVIATRVVSVGLVNNVQVHPREVFADPITDRATAVIVAHNHPSGSVAPSQEDIEVTKRLKDAGNTLGIKLIDHIIFSRKGYFSFLENGQMPD", "soluble on expression in E. coli": "soluble"}, {"sequence": "MGSDKIHHHHHHVYNEFFHLRTKPFELLPDPDFLYPSKAHRKALAYFEYGLSERSGFILLTGEVGSGKTTLIREMLKRDLGRMVLSKVFNTRVDSTQLVAMINDDFGLETAGRDKMVMLRDLNDFLIDQYAAGRRAVLVIDEAQNLSQELLEEVRMLSNLETDSAKLLQIILVGQPELRDLLRSPALVQLRQRIQVHCHIAPLSQEELREYVLFRLERAGNRDAMEWGEGVFGLMHEATRGIPRLVNILCDYVLLDAYAAGRRSINSAELQDLLAELDFERQFWPVDETSAPAPAAEQQRRTAVRRDASSVARRMMLMLQDLGQRLDVLERGYEKSGPDMLADMAERLGALEKRVTVLAGRVESLHAERMQRGAAPQVQPYRQKPERRKGWFRRVFGGD", "soluble on expression in E. coli": "not soluble"}, {"sequence": "ENSVFFGKKKKVSLHLLVDPDMKDEIIKYAQEKDFDNVSQAGREILKKGLEQIA", "soluble on expression in E. coli": "soluble"}, {"sequence": "MIGILKKVFDVNQRQIKRMQKTVEQIDALESSIKPLTDEQLKGKTLEFKERLTKGETVDDLLPEAFAVVREAATRVLGMRPYGVQLMGGIALHEGNISEMKTGEGKTLTSTLPVYLNALTGKGVHVVTVNEYLAQRDANEMGQLHEFLGLTVGINLNSMSREEKQEAYAADITYSTNNELGFDYLRDNMVLYKEQCVQRPLHFAIIDEVDSILVDEARTPLIISGQAQKSTELYMFANAFVRTLENEKDYSFDVKTKNVMLTEDGITKAEKAFHIENLFDLKHVALLHHINQALRAHVVMHRDTDYVVQEGEIVIVDQFTGRLMKGRRYSEGLHQAIEAKEGVEIQNESMTLATITFQNYFRMYEKLSGMTGTAKTEEEEFRNIYNMNVIVIPTNKPIIRDDRADLIFKSMKGKFNAVVEDIVNRHKQGQPVLVGTVAIETSELISKMLTRKGVRHNILNAKNHAREADIIAEAGMKGAVTIATNMAGRGTDIKLGDDIKNIGLAVIGTERHESRRIDNQLRGRAGRQGDPGVTQFYLSMEDELMRRFGSDNMKAMMDRLGMDDSQPIESKMVSRAVESAQKRVEGNNYDARKQLLQYDDVLRQQREVIYKQRQEVMESENLRGIIEGMMKSTVERAVALHTQEEIEEDWNIKGLVDYLNTNLLQEGDVKEEELRRLAPEEMSEPIIAKLIERYNDKEKLMPEEQMREFEKVVVFRVVDTKWTEHIDAMDHLREGIHLRAYGQIDPLREYQMEGFAMFESMIASIEEEISRYIMKAEIEQNLERQEVVQGEAVHPSSDGEEAKKKPVVKGDQVGRNDLCKCGSGKKYKNCCGIGK", "soluble on expression in E. coli": "not soluble"}]}]}
